This test addresses IgG1-DNP-E430G (human). The test is described as follows: single molecule force spectroscopy.

In publication doi:10.1101/2025.02.04.635266 one finds koff data, which are given here for one substance.

By koff is commonly meant the rate constant with which the complex falls apart. Low readings indicate slow dissociation, high ones fast dissociation. For the substance “DNP-unspecific IgG1-E430G (tip-linked) (antibody)”, the koff is 1.8 s⁻¹.
